Patent publication US20200024322A1 (Eli Lilly, published 2020)
Where a chain is given by its changes, count along the chain named. Numbered stars: 1 amine (or outer) side, 2 acyl side, 3 side chain; on linkers, the order of the positions; unused ones are H or OH. Square brackets hold non-standard residues; d marks the D form. Side chains are listed from the residue outwards. Ends that are not written are not given here. * marks the point of attachment. C20 diacid = O=C(O)CCCCCCCCCCCCCCCCCCC(=O)*; γGlu = O=C(O)[C@H](CCC(=O)[*:2])N[*:1]; αMeL = CC(C)C[C@](C)(N)C(=O)O; αMeK = C[C@](N)(CCCCN)C(=O)O; AEEA = NCCOCCOCC(=O)O; Aib = CC(C)(N)C(=O)O

T1: human GIP receptor (human, UniProt P48546 22-466)
T1 construct: whole, on cells; Used as crude membranes of stably transfected CHO cells; also called hGIPR
T1 sequence (looked up): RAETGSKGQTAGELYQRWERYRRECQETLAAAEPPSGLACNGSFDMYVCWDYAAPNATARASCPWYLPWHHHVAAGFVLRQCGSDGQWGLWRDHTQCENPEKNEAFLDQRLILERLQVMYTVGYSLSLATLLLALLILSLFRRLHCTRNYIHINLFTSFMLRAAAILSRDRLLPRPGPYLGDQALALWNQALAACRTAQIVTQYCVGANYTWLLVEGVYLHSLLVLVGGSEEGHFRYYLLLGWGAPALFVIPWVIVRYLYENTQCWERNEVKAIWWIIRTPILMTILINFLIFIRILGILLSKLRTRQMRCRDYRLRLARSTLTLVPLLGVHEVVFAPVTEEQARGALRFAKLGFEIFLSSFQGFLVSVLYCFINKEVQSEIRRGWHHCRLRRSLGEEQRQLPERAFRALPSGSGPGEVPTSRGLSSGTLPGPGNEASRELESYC

B1: Example 2 (peptide)
peptide: YXEGTXTSDYSIXLDXKAQXEFIXYLIEGGPSSGAPPPS
modifications: Aib2; αMeF(2F)6; αMeL13; Orn16; K17((2-[2-(2-Amino-ethoxy)-ethoxy]-acetyl)2-(γ-Glu)-CO-(CH2)16-CO2H); Aib20; D-Glu24; C-terminal NH2
B2: Example 51 (peptide)
peptide: Y[Aib]EGTFTSDYSILLDKK([AEEA-AEEA-γGlu-C20 diacid])AQ[Aib]AFIEYLIEGG-NH2
modifications: N-terminus assumed
SMILES: CC[C@H](C)[C@H](NC(=O)[C@H](CC(C)C)NC(=O)[C@H](Cc1ccc(O)cc1)NC(=O)[C@H](CCC(=O)O)NC(=O)[C@@H](NC(=O)[C@H](Cc1ccccc1)NC(=O)[C@H](C)NC(=O)C(C)(C)NC(=O)[C@H](CCC(N)=O)NC(=O)[C@H](C)NC(=O)[C@H](CCCCNC(=O)COCCOCCNC(=O)COCCOCCNC(=O)CC[C@H](NC(=O)CCCCCCCCCCCCCCCCCCC(=O)O)C(=O)O)NC(=O)[C@H](CCCCN)NC(=O)[C@H](CC(=O)O)NC(=O)[C@H](CC(C)C)NC(=O)[C@H](CC(C)C)NC(=O)[C@@H](NC(=O)[C@H](CO)NC(=O)[C@H](Cc1ccc(O)cc1)NC(=O)[C@H](CC(=O)O)NC(=O)[C@H](CO)NC(=O)[C@@H](NC(=O)[C@H](Cc1ccccc1)NC(=O)[C@@H](NC(=O)CNC(=O)[C@H](CCC(=O)O)NC(=O)C(C)(C)NC(=O)[C@@H](N)Cc1ccc(O)cc1)[C@@H](C)O)[C@@H](C)O)[C@@H](C)CC)[C@@H](C)CC)C(=O)N[C@@H](CCC(=O)O)C(=O)NCC(=O)NCC(N)=O
B3: Example 59 (peptide)
peptide: B1 peptide with X6F, X16E, E21A, X24E
modifications: Aib2; αMeL13; K17((2-[2-(2-Amino-ethoxy)-ethoxy]-acetyl)2-(γ-Glu)-CO-(CH2)18-CO2H); Aib20; C-terminal NH2
B4: Example 20 (peptide)
peptide: B1 peptide with X6F, X16K, E21A, X24E
modifications: Aib2; αMeL13; K17((2-[2-(2-Amino-ethoxy)-ethoxy]-acetyl)2-(γ-Glu)-CO-(CH2)18-CO2H); Aib20; C-terminal NH2
B5: Example 21 (peptide)
peptide: Y[Aib]EGTFTSDYSI[αMeL]LDEK([AEEA-AEEA-γGlu-C20 diacid])AQ[αMeK]AFIEYLLEGGPSSGAPPPS-NH2
modifications: N-terminus assumed
SMILES: CC[C@H](C)[C@H](NC(=O)[C@H](Cc1ccccc1)NC(=O)[C@H](C)NC(=O)[C@](C)(CCCCN)NC(=O)[C@H](CCC(N)=O)NC(=O)[C@H](C)NC(=O)[C@H](CCCCNC(=O)COCCOCCNC(=O)COCCOCCNC(=O)CC[C@H](NC(=O)CCCCCCCCCCCCCCCCCCC(=O)O)C(=O)O)NC(=O)[C@H](CCC(=O)O)NC(=O)[C@H](CC(=O)O)NC(=O)[C@H](CC(C)C)NC(=O)[C@](C)(CC(C)C)NC(=O)[C@@H](NC(=O)[C@H](CO)NC(=O)[C@H](Cc1ccc(O)cc1)NC(=O)[C@H](CC(=O)O)NC(=O)[C@H](CO)NC(=O)[C@@H](NC(=O)[C@H](Cc1ccccc1)NC(=O)[C@@H](NC(=O)CNC(=O)[C@H](CCC(=O)O)NC(=O)C(C)(C)NC(=O)[C@@H](N)Cc1ccc(O)cc1)[C@@H](C)O)[C@@H](C)O)[C@@H](C)CC)C(=O)N[C@@H](CCC(=O)O)C(=O)N[C@@H](Cc1ccc(O)cc1)C(=O)N[C@@H](CC(C)C)C(=O)N[C@@H](CC(C)C)C(=O)N[C@@H](CCC(=O)O)C(=O)NCC(=O)NCC(=O)N1CCC[C@H]1C(=O)N[C@@H](CO)C(=O)N[C@@H](CO)C(=O)NCC(=O)N[C@@H](C)C(=O)N1CCC[C@H]1C(=O)N1CCC[C@H]1C(=O)N1CCC[C@H]1C(=O)N[C@@H](CO)C(N)=O
B6: Example 53 (peptide)
peptide: HXEGTFTSDYSIXLDKKAQXAFIEYLIEGGPSSGAPPPS
modifications: Aib2; αMeL13; K17((2-[2-(2-Amino-ethoxy)-ethoxy]-acetyl)2-(γ-Glu)-CO-(CH2)18-CO2H); Aib20; C-terminal NH2
B7: Example 61 (peptide)
peptide: B6 peptide with H1Y, K16S, I27L
modifications: Aib2; αMeL13; K17((2-[2-(2-Amino-ethoxy)-ethoxy]-acetyl)2-(γ-Glu)-CO-(CH2)18-CO2H); Aib20; C-terminal NH2

Columns and labels:
[1] = target: T1, human GIP receptor; assay: SPA, [125I]-GIP displacement, hGIPR membranes
[2] = target: T2, human glucagon receptor (human, UniProt P47871 26-477); assay: SPA, [125I]-Gcg displacement, hGcgR membranes
T2 construct: whole, on cells; Used as crude membranes of stably transfected HEK293 cells; also called hGcgR; hGLcgR
T2 sequence (P47871 26-477): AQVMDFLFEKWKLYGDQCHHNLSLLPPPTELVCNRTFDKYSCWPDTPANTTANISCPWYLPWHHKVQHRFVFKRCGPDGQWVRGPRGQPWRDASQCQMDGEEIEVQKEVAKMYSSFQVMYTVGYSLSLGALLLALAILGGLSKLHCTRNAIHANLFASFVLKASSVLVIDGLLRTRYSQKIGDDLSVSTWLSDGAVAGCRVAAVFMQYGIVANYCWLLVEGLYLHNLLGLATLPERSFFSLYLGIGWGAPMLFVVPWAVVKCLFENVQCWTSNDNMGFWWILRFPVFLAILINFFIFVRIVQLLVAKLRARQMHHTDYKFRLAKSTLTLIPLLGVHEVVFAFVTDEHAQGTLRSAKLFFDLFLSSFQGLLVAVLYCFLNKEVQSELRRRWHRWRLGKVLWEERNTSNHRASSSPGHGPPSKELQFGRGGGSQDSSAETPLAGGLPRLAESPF

[3] = target: T3, human GLP-1 receptor (human, UniProt P43220 24-463); assay: SPA, [125I]-GLP-1 displacement, hGLP-1R membranes
T3 construct: whole, on cells; Used as crude membranes of stably transfected HEK293 cells; also called hGLP1R; hGLP-1R

Binder	Ki [1]	Ki [2]	Ki [3]
B1	0.06 nM	361 nM	2.35 nM
B2	0.062 nM	195 nM	5.62 nM
B3	0.136 nM	292 nM	8.2 nM
B4	0.0849 nM	228 nM	3.3 nM
B5	0.529 nM	149 nM	14.5 nM
B6	0.188 nM	216 nM	1.23 nM
B7	0.102 nM	110 nM	11.1 nM
